Experimental data published in the Human Domainome abundance scans (Beltran et al. 2025).
± gives the uncertainty stated by the source.

B1: Transitional endoplasmic reticulum ATPase, residues 26 to 106; numbered along this chain, P55072 (parent)
chain: LIVDEAINEDNSVVSLSQPKMDELQLFRGDTVLLKGKKRREAVCIVLSDDTCSDEKIRMNRVVRNNLRVRLGDVISIQPCP

Variants of: B1
Test: abundance fitness (aPCA) (normalised: wild type 0, dead -1); higher = more abundant; growth selection in yeast, the domain comes from the species named
Details: Homo sapiens
V14T showed an abundance fitness of -0.743 ± 0.11. Work on S76Y yielded an abundance fitness of -0.107 ± 0.12. T51D gave an abundance fitness of 0.026 ± 0.094. S17H showed an abundance fitness of -0.396 ± 0.38. For P19E, the abundance fitness was 0.087 ± 0.088. Work on D4Y yielded an abundance fitness of -0.32 ± 0.28. With G72H the abundance fitness was -0.257 ± 0.16. Variant V62K has an abundance fitness of 0.003 ± 0.092. With D10C the abundance fitness was -0.165 ± 0.099. For L67E, the abundance fitness was -0.853 ± 0.15. V46F gave an abundance fitness of -0.688 ± 0.15. I75T gave an abundance fitness of -0.495 ± 0.14. Variant V62N has an abundance fitness of 0.109 ± 0.21. I7D gave an abundance fitness of 0.032 ± 0.12. Work on S53W yielded an abundance fitness of -0.22 ± 0.071. In the case of C44K, the abundance fitness is reported as 0.057 ± 0.075. For P19K, the abundance fitness was -0.252 ± 0.18. L16Q showed an abundance fitness of -0.584 ± 0.1. For R28V, the abundance fitness was 0.021 ± 0.067. For R64C, the abundance fitness was -0.227 ± 0.12. Variant S48G has an abundance fitness of 0.001 ± 0.049. G29A gave an abundance fitness of -0.203 ± 0.06. I75Y showed an abundance fitness of -0.916 ± 0.31. I75D showed an abundance fitness of -0.863 ± 0.41. In the case of S17I, the abundance fitness is reported as -0.79 ± 0.17. For I2E, the abundance fitness was -0.167 ± 0.11. Variant R40M has an abundance fitness of -0.077 ± 0.12. Variant E23G has an abundance fitness of -0.079 ± 0.061. K20C gave an abundance fitness of -0.096 ± 0.11. Work on P79R yielded an abundance fitness of -0.106 ± 0.062. With E9P the abundance fitness was 0.048 ± 0.079. V13H gave an abundance fitness of 0.053 ± 0.12. For V14G, the abundance fitness was -0.758 ± 0.054. V74M showed an abundance fitness of -0.107 ± 0.093. N65V gave an abundance fitness of -0.131 ± 0.063. L24N gave an abundance fitness of -0.47 ± 0.19. With V3C the abundance fitness was -0.173 ± 0.13. Work on L34F yielded an abundance fitness of -0.856 ± 0.39. Variant M59K has an abundance fitness of -1.03 ± 0.21. For S53M, the abundance fitness was -0.09 ± 0.073. For L71K, the abundance fitness was -0.026 ± 0.091. Variant R64F has an abundance fitness of -0.212 ± 0.23. Variant R28L has an abundance fitness of 0.012 ± 0.059. In the case of S12E, the abundance fitness is reported as 0.039 ± 0.062. Work on V62G yielded an abundance fitness of 0.025 ± 0.052. E55M gave an abundance fitness of -0.143 ± 0.097. In the case of V69F, the abundance fitness is reported as -0.717 ± 0.15. L16I gave an abundance fitness of -0.005 ± 0.075. Work on E9C yielded an abundance fitness of 0.045 ± 0.069. Work on S17F yielded an abundance fitness of -0.698 ± 0.18. In the case of G72D, the abundance fitness is reported as -0.187 ± 0.15. Work on R68N yielded an abundance fitness of -0.123 ± 0.14. In the case of L67C, the abundance fitness is reported as -0.175 ± 0.084. In the case of C52S, the abundance fitness is reported as -0.261 ± 0.066. Q78R showed an abundance fitness of -0.071 ± 0.057. Variant D73C has an abundance fitness of -0.343 ± 0.15. Work on V74L yielded an abundance fitness of -0.117 ± 0.064. K37M showed an abundance fitness of 0.156 ± 0.31. Work on C44N yielded an abundance fitness of -0.172 ± 0.25. E41V gave an abundance fitness of -0.213 ± 0.056. Work on K56Y yielded an abundance fitness of -0.022 ± 0.1. For V62M, the abundance fitness was 0.022 ± 0.087. Work on V69M yielded an abundance fitness of -0.032 ± 0.1. K38D gave an abundance fitness of -0.11 ± 0.15. In the case of E5T, the abundance fitness is reported as -0.1 ± 0.058. I2M gave an abundance fitness of -0.102 ± 0.075. Work on V14H yielded an abundance fitness of -0.956 ± 0.2. In the case of L33Y, the abundance fitness is reported as 0.086 ± 0.12. R28F showed an abundance fitness of -0.401 ± 0.31. S17R gave an abundance fitness of -0.431 ± 0.043. For C44G, the abundance fitness was -0.006 ± 0.051. Q18V showed an abundance fitness of 0.001 ± 0.05. F27G showed an abundance fitness of 0.016 ± 0.05. In the case of L1F, the abundance fitness is reported as 0.15 ± 0.13. Variant M59V has an abundance fitness of -0.166 ± 0.11. In the case of C52Q, the abundance fitness is reported as -0.026 ± 0.095. With C52L the abundance fitness was 0.018 ± 0.059. C44A showed an abundance fitness of -0.017 ± 0.062. V32M showed an abundance fitness of -0.166 ± 0.1. In the case of T51K, the abundance fitness is reported as -0.065 ± 0.088. Work on R58L yielded an abundance fitness of -0.037 ± 0.072. In the case of M59R, the abundance fitness is reported as -1.08 ± 0.13. K35S gave an abundance fitness of 0.031 ± 0.074. Work on D49C yielded an abundance fitness of -0.468 ± 0.4. For S17V, the abundance fitness was -1.03 ± 0.26. For R40H, the abundance fitness was -0.139 ± 0.11. D10Q gave an abundance fitness of -0.072 ± 0.072. Variant N11V has an abundance fitness of -0.067 ± 0.045. For T51N, the abundance fitness was 0.126 ± 0.14. With E23A the abundance fitness was -0.103 ± 0.06. With N8F the abundance fitness was -0.083 ± 0.12. In the case of G29M, the abundance fitness is reported as -0.098 ± 0.12. For D10P, the abundance fitness was -0.02 ± 0.071. In the case of K56L, the abundance fitness is reported as -0.047 ± 0.055. In the case of F27A, the abundance fitness is reported as 0.042 ± 0.048. L47I gave an abundance fitness of -0.042 ± 0.083. In the case of N11P, the abundance fitness is reported as -0.011 ± 0.071. E5P showed an abundance fitness of -0.149 ± 0.051. In the case of Q78L, the abundance fitness is reported as -0.01 ± 0.06. In the case of I45H, the abundance fitness is reported as -0.088 ± 0.084. Variant R61I has an abundance fitness of -0.026 ± 0.15. With V43S the abundance fitness was -0.052 ± 0.076. Variant D4G has an abundance fitness of -0.085 ± 0.043. D49V showed an abundance fitness of -0.455 ± 0.068. In the case of D30G, the abundance fitness is reported as -0.107 ± 0.041. With D22W the abundance fitness was -0.281 ± 0.057. With E5W the abundance fitness was -0.051 ± 0.044. D50I gave an abundance fitness of -0.059 ± 0.1. With P79E the abundance fitness was -0.087 ± 0.082. Variant N8P has an abundance fitness of -0.096 ± 0.061. Variant I77S has an abundance fitness of -0.914 ± 0.19. Variant V74P has an abundance fitness of 0.009 ± 0.095. For L26Q, the abundance fitness was -0.763 ± 0.13. With K38S the abundance fitness was -0.097 ± 0.092. Variant D30W has an abundance fitness of -0.286 ± 0.079. Variant S48F has an abundance fitness of -0.342 ± 0.17. Work on V32A yielded an abundance fitness of -0.18 ± 0.057. G36K gave an abundance fitness of -0.423 ± 0.15. Work on D50Q yielded an abundance fitness of -0.277 ± 0.2. For V14Q, the abundance fitness was -1.02 ± 0.26. In the case of P79L, the abundance fitness is reported as -0.044 ± 0.035. With S17L the abundance fitness was -0.854 ± 0.11. For L16P, the abundance fitness was -0.788 ± 0.13. Q78Y gave an abundance fitness of 0.024 ± 0.33. With N11A the abundance fitness was -0.105 ± 0.048. R28A showed an abundance fitness of 0.085 ± 0.06. With I45N the abundance fitness was 0.036 ± 0.13. Work on G29C yielded an abundance fitness of -0.259 ± 0.1. In the case of S17K, the abundance fitness is reported as -0.361 ± 0.097. I57V gave an abundance fitness of -0.019 ± 0.058. L16A gave an abundance fitness of -0.65 ± 0.062. Work on V74F yielded an abundance fitness of 0.042 ± 0.078. Work on P19H yielded an abundance fitness of -0.003 ± 0.15. D50P gave an abundance fitness of -0.105 ± 0.11. I7S showed an abundance fitness of -0.048 ± 0.061. Variant V14D has an abundance fitness of -0.704 ± 0.12. Work on E55P yielded an abundance fitness of -0.075 ± 0.083. Work on E9Q yielded an abundance fitness of -0.127 ± 0.12. For D4N, the abundance fitness was -0.332 ± 0.16. For I7R, the abundance fitness was -0.042 ± 0.044. Variant R40Y has an abundance fitness of 0.073 ± 0.17. Work on A6G yielded an abundance fitness of 0.024 ± 0.044. Variant N60L has an abundance fitness of -0.756 ± 0.13. In the case of R64A, the abundance fitness is reported as -0.023 ± 0.055. L33T gave an abundance fitness of -0.03 ± 0.088. N60P showed an abundance fitness of -0.046 ± 0.079. In the case of M21C, the abundance fitness is reported as -0.435 ± 0.12. With S53Q the abundance fitness was 0.033 ± 0.11. V69A gave an abundance fitness of -0.045 ± 0.064. In the case of D73P, the abundance fitness is reported as -0.915 ± 0.19. For R64I, the abundance fitness was -0.061 ± 0.17. Variant S15F has an abundance fitness of 0.087 ± 0.11. S76M showed an abundance fitness of -0.012 ± 0.087. With V74Y the abundance fitness was -0.052 ± 0.11. Work on R39F yielded an abundance fitness of -0.007 ± 0.12. K20V showed an abundance fitness of 0.004 ± 0.046. Variant D30C has an abundance fitness of 0.035 ± 0.12. V32P gave an abundance fitness of -1.09 ± 0.28. Work on N11I yielded an abundance fitness of -0.024 ± 0.038. V32F gave an abundance fitness of -0.832 ± 0.28. With Q18A the abundance fitness was -0.003 ± 0.072. Variant C52D has an abundance fitness of -0.433 ± 0.11. Work on S48K yielded an abundance fitness of -0.004 ± 0.11. With L71Y the abundance fitness was -0.391 ± 0.34. For I57A, the abundance fitness was -0.356 ± 0.064. Variant P81L has an abundance fitness of -0.405 ± 0.21. Variant K37I has an abundance fitness of -0.182 ± 0.15.
